Drawing on publication PMC8640741, this text covers stoichiometry N for one substance.

As usually defined, the stoichiometry N is the number of molecules, sites or subunits per partner or assembly.

The target in the test is SARS-CoV-2 spike (S) protein in the postfusion state, in situ on the viral membrane (SARS-CoV-2). In words: cryo-EM structure.

On to “SARS-CoV-2 spike (S) protein in the postfusion state, in situ on the viral membrane (natural protein)”, for which the stoichiometry N turned out to be 3.
